Our source for the Mean values is patent publication US20090232811A1.

The target of this test is recombinant human ANGPT2 (full-length ANGPT2-His protein, R&D Systems) (human) (UniProt O15123). Kind of test: cellular FACS IGF-1R-ANGPT2 bridging assay on I24 cells with purified Bispecific VL-VH/CL-CH1 exchange mix and 2 µg/mL hANGPT2; isotype control in place of <Ang-2>mIgG1-Biotin, SA-PE (FL2-H).
UniProt O15123, sequence (O15123 19-496 limits assumed): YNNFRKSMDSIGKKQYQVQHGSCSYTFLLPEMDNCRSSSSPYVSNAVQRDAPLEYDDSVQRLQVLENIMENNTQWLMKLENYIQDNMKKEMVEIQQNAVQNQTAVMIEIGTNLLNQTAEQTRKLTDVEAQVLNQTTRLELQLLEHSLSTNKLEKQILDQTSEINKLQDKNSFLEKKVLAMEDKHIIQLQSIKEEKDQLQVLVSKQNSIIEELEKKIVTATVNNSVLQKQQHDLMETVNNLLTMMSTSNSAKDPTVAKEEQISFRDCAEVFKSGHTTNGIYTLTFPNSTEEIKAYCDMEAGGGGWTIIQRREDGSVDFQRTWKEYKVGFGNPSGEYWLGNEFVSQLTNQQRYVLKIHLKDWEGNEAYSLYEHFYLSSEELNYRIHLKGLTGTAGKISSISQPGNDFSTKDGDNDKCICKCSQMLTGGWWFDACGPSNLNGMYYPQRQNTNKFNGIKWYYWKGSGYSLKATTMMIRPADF

For mIgG1-Biotin-Isotype control (antibody), the Mean was 8.7.
